Measurements as given in a protein production outcome set (Wang et al. 2014).

test: label from the status in PepcDB records
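Also: failed if final PepcDB status was selected cloned or expressed and not failed if soluble or beyond.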

| Sequence | protein production |
| --- | --- |
| MNRFSRARSYISLVLFRKSSYVTSHIPWNQCFYTSLKSSLKPASVSVSSVHCYSSRSKTAKSKMSKSSVSVSDSDKEKDAFFVVRKGDIVGIYKDLIDCQAQVGSSVYDPPVSVYKGYSLLKDTEECLSTVGLKKPLYVFRALDLKEDMFGALTPCLFQDQLPSASMSVEKLAELEPSADTSYETCIIEFDGASKGNPGLSGAAAVLKTEDGSLIFKMRQGLGIATNNAAEYHGLILGLKHAIEKGYTKIKVKTDSKLVCMQMKGQWKVNHEVLSKLHKEAKQLSDKCLSFEISHVLRSLNSDADEQANMAARLSEGEVEVA | failed |
| MNRIKEVLEEKGIKQTWLAEKLGKSFSIVNSYVCNRRQPSLDILFEIAKILEVDVRVLIGTKENRQKSK | not failed |
| MNRLREALKERGITQTELSTRLGKSFNMVNLYVANKHQPSIPTLFQIAEILDMDVRDLLVSNKQQNK | failed |
| MNRLRTSLTALAAAITLSGLANAATRYEELANQPFEKGFPTETAARNLIDELVFQRAVQSYLWALPAINIWSMKEASEKEFGAGYNILPTWKKRINAKTLVTTPNSDLVYAMSYLDLQKYGPLVVEAPPGVQGMFDDFFQRPIVGPTIDGKTWRGDVGLAGPDKGKGGTYVLLPPDYKGPEPTEGYVYRSRTNNVFLFWRTFFKDPKDLSVPVAEVERTKIYPLGKKDEALPMQFPDATGAPINMLFPEDGRYFDMLSRFIDAEAVDPADMDMRGFLHTLGIEKGKPFAPDAQRRKLLDEAARTAFKMSKVVTSHLLLKEPGGLYYKDRQYVNTFAGENTEFQSSGSFTNLEQRVAFFTSAYSDSPGMVMNMVGAGAKYPATTRDADGKFLDGAQTYKLNLPANVPAALFWSVTAYDNLTASGLDNGQPFPSLNQMDKPVQNSDGSTDIYFGPKSPGEGKNWIKTVPDKGFLVIVRLYGPKQAFFDQSWKPSDLLKQ | failed |
| MNRRDFLQFGLRGIVVAGLGKGFYNTTSEQVEIVRTSVKIRNLPAALQGLKIGLLTDLHASFVVSSETIRSAGRLLMAEKPDLIVMTGDYISGSTRFLSGSVGQFKKEYLSKCIDALSGLKAPLGIYGVLGNHDFWSGPESVKAICEAFTRQMGMVWLRNSSVEIRRGRGSLHLLGVDDYWEPSCSLAAACKGVDTDGIKILLSHNPDINDEIFLLRERIDLVLSGHTHGGQVVVPFLGQPVMPSKFGQKYRAGLVRDGDRQTYISRGVGCLLAPIRLNCPPEATVLTLTLEHHHHHH | not failed |
| MNRSVRLITIALLLAALASLTYAVVRPFLVSIGWAVFVSYVAWPLHAWSQRRFEGRKTLSALVTTALLGSVVLAPLIWLAVLLQGEVSELIRSLPDWLEQKPRLPDFVSHIPYFGNELQAVVDQFEDLHGLLKRHAPEWVRRLGSPVLGIMTTLVQNAAVLFMTLFTLFFLFRDGLQLATDVRRVFTRVLGERLKGYFATIEATVKAVLYGIVLTALAQGFLAGLGYWIVGVKAPIVLGIATTLIAMIPFGTPFAWGSVSIWLLLQGETWAGVSLALWGTLVISWIDNIIRPLVISSATHIPFVLVMFGVLGGLASFGFIGLVLGPVILAMALAVWREWLQQVREAGLRGEDGSGTGPGERR | failed |
| MNRTAMRASQKDFENSMNQVKLLKKDPGNEVKLKLYALYKQATEGPCNMPKPGVFDLINKAKWDAWNALGSLPKEAARQNYVDLVSSLSPSLESSSQVEPGTD | not failed |
| MNRTMSSINVLSLPVFNRDASGYDALRRGLIPCFDAFYGTALDLIDDWRDAEKLRVLDLGAGTGLFTAMLLTRHPDAQIHLIDASEKMLEQARKRFDGNPAITYAVADMANTELGGPWDLIISALAIHHLEDIGKKHLFGEIRGALSEGGLFVNVEQVLGHDPEVEARYARTWLQQVRRLGVAEVEIAKAHERMSHDRCSPLENQLQWMRDTGFCEIDCSFKAWRFAVLSGRR | failed |
| MNSAARNAPAGSQPVKAELWKRVYSRVGSYWKGLVLAVLLMAGAAATQPTLAVIMKPLLDDGFSGAKPHYVWFLPLAVVGLILLRGICNFFSDYLLAWVANNVLRGIRGEMFERLLGLPDADFKRGDTGRLLNRFTIDAGNVTGYATDVITVLVRETLVVIALIGVLLYMSWALTLIILVMLPVSVGIARAFTRRLRRINRETVNMNAELTRVVSEGIDGQRVIKLFDGYDAERRRFDFVNSRLRRFAMRSATADAALTPLTQVCISVAVGAVIAVALSQANSGALTVGSFASFMAALAQIFDPIKRLTNLAGKMQKMLVAAESVFTLVDQTPEADAGTRALPEPVRGKVEFRAVSHRFPDADRDTVSAVSFLVEPGQTVALVGRSGSGKTTLVNMLPRFVLPDGGDILFDDVPIQDLTLRSLRSHLSLVSQDVVLFDDTIAANVGYGAGGTVDDARVRDALAAANLLEFVDGLPLGIHTPVGQNAARLSGGQRQRLAIARALIKNAPVLILDEATSALDNESERQVQASLERLMRGRTTLVIAHRLSTVQNADRIIVLDAGKIVEHGPHSELLAANGLYASLYNMQFRED | failed |
| MNSDGSDNFELVKKSYGRNFSGISGCAWSPDGSRIAYISSDHNGSDRLVTLNPDGSNEQIVASFAEISALAWAPDSSGMAFNAAYSEDGQTGIYLADLESSEPVFLVRGEIRQQIQSWQSEVWSPDGSRILYSSNENGNSDTNENGNSDIYSVNTDGSEKIQLTDDNSKDYSPCFSPDGSKIIFISDRTGHSSIWIMSSNGDKEEELTEGFEGIHDFSWNPNGQKIAFSSDSNSYIQEIDYSESGDEDSQDDSSSDDSDNDTEVNPEYLHMEILSPDLNFAASQGTPELITVRITNNSGSPVQSSGFKFIKANFSNGDPELQLFDDGTHEDITASDGIFSNQWIPVNTTGLPLTLCILWASADHESLGDAEQIISGTISRKPIPSDLVIENISWSPADPYVNDNITFSITSANRGSGPSEACKVKCYINGNEAYSYSLPELEARSSTSIIFSWIPTAPGNIDVKAVVDEENQVSESVEENNEKSVSFSVKSLTPSTSSGKSGGKSSSSGGGGGGGGSPEPASNVRIKELSQQYITSGKYAKFAFPRNATCVTHVAFNSRRTAGKTTTIVEMLKNKSTRVPDLPAGKIYENVNIWVGNKGTADPENIENAVVGFRVEKSWITLNDVDPASVRLWRLSSGEWEELSIRQSGEDDRYSYFEAQTEGFSHFVITAPSGENETIENALKSSIVPPVRSSAEVMEELFGKLSGKQNADFPVISAMSVNESGSEPEAPSTAGHAADRITGRGIIKVLVVIALLSVTGFLGSLILRKQN | failed |
| MNSEIFRIFRKKYSEEIRNPPMNATTLPEALKLMQYIGDAIGTIRDPQELFRTVTDKLRLLFAFDSAVIITIDRERREASVFFEMLRFELPEQLRHQTRSIAGTWLEGHLDDRTVTVASIARDIPSFGADGAPLLWTLHELGMRQIVLSPLRSGGRVIGFLSFVSAEEKLWSDGDKSLLSGVSSSIAIAVSNALAYEELRQRE | failed |
| MNSFAEKLMVGATAPSASVELPLGDRVRCVLVHEFLSASECEALIEATEQCGFASAGSDYPSSYRDNDRIVADDPAMAGRLFERLKHCASRMPKLGTVIDEDGWRPVGINERLRFCRYRPGTQFRAHQDGVHHRQRQQSRLTFMIYLNDDAFSGGETLFFEGRSAAMSNRDSTLRLRPRKGSLIVFDHTLWHAGALVDAGQKYVMRSDLMYEPQQSLQVDGPFQPGHRGYVWALADLGDRGFASAGRDATIRLWDHEGRCLGQLDGHTQSILGLVDVAPGELVSHSRDRTVRHWSLATGKSTLVGTSDSAVLSSARLGADRLVTGAADGCLTVWNLATGAADRRQAHACWVWAIAPTGDGSFASASEDGTVRLWQPEERDCVQVLDLGRPLRMLASWIDADGSVTLAVGDLDGAVHLLATEPRLALLDCLAAHDGPVRRVRFEARHMLLTCGEDGLVRRWNLPSRQGAIIGSHDNFATDVLPTRAGGWISCGYDGRILVHGDKG | failed |
| MNSFSSKNPEGCSLKVLIKYLLKLSVVPFLIGLGGFIVFVSLEILYQLSDLIVRHRVGIEKLFLMLYYYLPYFVAMGVPVGVLLAIFWTFSRLSEERELMAIQVHGISQKNLIVPFLILGALLSIAVFFLSDQIVPEYQSKAEEAMSKYVLKKPEVFVVENVISKIGDDQYFYVEKYDERTSTMWNVVIFRYGHEETIVTAKRVQKKGNDWYLFDGNYYTVDKDGFLKLDVHFSEMKLDITEDIEKLLRVGKTPKEMTGKELKEKIEFFKKVGVKPSPWVVELHSRYANSLTPIVIVLVGVPLSLLFQLRSKSWGVIFTFVLVVLYQGSGAWLSAMGKENLLNPVLAPWIPNIVFTIVGTLLFILLDTFFAYRITEFLSRLFFVAFIFTVSSLFSSQVVIVSDRMEKFPEEMVFHGSVEIAYKDMTVQASEATIQLTEEGKAKKLEASGGVIYRKADTILMGEHLIFYLENEKSVLTHIRGSTVLEIEKEKKKIYLSGEDLTSEGSRTIVDMGSISTCSETPPHYKLKARYIEIKENDYLLAKDVVFYLLEIPLFYQPIFFTSLSDKPQPFSVEVGVGNNPHLKTSYNVSYPSGLLYFSTKSVLSGGLSKELNWNHKMGSWSLNLDYKESTSHSVLVKIFDSKNTFLFSQKNEERIHQFERKEKILNGSLNVVLRKESDGEDSYILPRVTVKKVSVKTGVGTFSVDSFNHETRIEDQEKRNSGSVSLSFRSVPFLLFQSVSVSTTGKYLFENQNLDERTSYLKTDSIWDFQNLSLGKFLVLDDKIYAGVYRSNEDGYRVGNLFTTTLRVPLGPFSFESYYKLFTVSGENLRKFSQNESKNEVDLKVSFSYENFKSSLETTYDFLEKEFSDPYLKTSYSFKTGDITHTVDSTTRFVLDEISRSYTTWNFQQRMGAFLNRFYFTYYYREPHVKYVEDQMRIYGKNFLFMENPRITTYTKLSVDPFELDEFWIRGTFKKGESTHSLKMSYSSDNLEFSYQTKNGDPALEISFSLKDWNVEKFSLSVEKALHCLGTKISTSFGRNFTLESFSILFFIRDFPNSGIGFDTEEGIGLNVF | failed |
| MNSFWLSLAPVLWLTIIAIPVGILFNAAIVFGLYSIILLGIVIYHIHTLYCLEQWLHHSDLSYATVPDRSGLWGVVFARLARFVRRHDKERLGLNTSLERLQRATSALPEGIVILGDKDQIEWCNSAAERHLGLNLEMDAGQHITRMVRQVRFVAYLDMGDFSKPFLLNQSRLRDVLLSIQIVPYGDREKLLISQDVTRFEKIEIMRRDFVANVSHELRTPLTVIGGFLETLLEENKISGEMEKNALRLMSDQAIRMRRLVEDLLTLSRLENAGNNLTEEQVDVVKLLQGLYQEAQSLSAGRHVISLNLASHAMLLGSEDELRSAFENLISNAVRYTPESGIISLNWVVENGKGLFYVQDSGIGIEPNHIPRLTERFYRVDRSRSRETGGTGLGLAIVKHVLNRHQASMEITSQPGAGSIFRIWFPSNRVLPAETAPVISSSPEHTKQNSAA | failed |
| MNSFWTFLQLIFVILQVTSLALYALLPAPWSDTVLVAMILFSLIIGIVIWWWSRRNALTAPFRQPFLSSDSLQLFEQVFNDLPTRVYWRDPELKLLGGNRAFANDFGIDPESLAGKTDAEIDSLASNDVLLERDRKTFSQQAPSVNAEIELKVSGKSQWVEHSSVPLYDDDHNIIGILGSYYDISGIKSVAEEMEKAKETAERANQSKGEFLANMSHEIRTPINAIVGMANLCLKTELTQKQKRYIKVIDSSSQALLGVINDILDFSKIDAGKLTVERIPFDLQDVLTSLADMFAYRAYDKDLEFIINLPANIPTRLIGDPLRLNQVLVNLISNAIKFTEDGEINVAVNLLDSSRDNVLLRISVTDTGIGMDEEQRANLFKAFTQADTSTTRKYGGTGLGLAISRRLILLMGGDIGVTSAAGQGSTFYIEVELPLQTEQDNSHHQYLLQKLKGVRILAIDDNLSTREMLYEMLRSYQVDVKVCRTAEQALQVFQLSVEDNNPYQLVLVDWRLPGMDGLEFCQKITERYAEDIRPKMTLATGYYAEELSEKAKQAGVNDIISKPFTASTLGRSLTSTLFQRELSDADDADSGDGIPESILRAPILVVEDNEINQQVAREILSSHKFKVDIVENGQLAVEAVHNKNYSLVLMDIQMPVMDGLKAAQTIRADFNYQQLPILAMTANAMSGDEERSLAAGMQGHIAKPIDEQQLIKAIIKWAVPGDYTNNQQPEVPPESKQDEVNKPPVRIPQVKGIEFETALKRLQYNVELYLKLVEQLYETYQGSATKVSDFITRGQHESARRYFHSLKGAAANLGFTQLQSKAADLEQFMAEGNIDKVADQITELEKRLRYAHQAAVDLEAIQQHQS | failed |
